“And” between values parts separate entries of the source, which are not always exact repeats. Equal entries are not always repeated. Values belong to the binder of their own block, whether it stands above or below them.
Tests used:
OmpT = biological target: T1, OmpT (E. coli, UniProt P09169 21-317); experiment: native MS
T1 sequence (looked up): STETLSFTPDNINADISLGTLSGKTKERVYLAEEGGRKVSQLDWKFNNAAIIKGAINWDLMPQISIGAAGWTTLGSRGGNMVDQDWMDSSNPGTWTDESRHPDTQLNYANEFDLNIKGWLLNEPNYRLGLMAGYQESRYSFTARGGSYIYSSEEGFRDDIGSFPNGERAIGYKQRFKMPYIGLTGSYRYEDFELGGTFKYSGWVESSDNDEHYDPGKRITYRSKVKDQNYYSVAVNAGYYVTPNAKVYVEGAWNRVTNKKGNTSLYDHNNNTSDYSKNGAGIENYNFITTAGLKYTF

[1] = biological target: tBamA, the 16-stranded transmembrane domain of the BamA OMP insertase (UniProt P0A940 425-810); experiment: native MS
[2] = biological target: T2, tOmpA, the 8-stranded transmembrane domain of OmpA (UniProt P0A910 22-197); experiment: native MS
T2 sequence: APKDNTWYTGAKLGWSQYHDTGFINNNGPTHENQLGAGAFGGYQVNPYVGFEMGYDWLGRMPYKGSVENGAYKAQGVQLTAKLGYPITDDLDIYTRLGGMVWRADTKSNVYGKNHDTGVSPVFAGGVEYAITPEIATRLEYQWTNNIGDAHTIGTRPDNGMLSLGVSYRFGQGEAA

OmpF = biological target: T3, OmpF (UniProt P02931 23-362); experiment: native MS
T3 sequence (looked up): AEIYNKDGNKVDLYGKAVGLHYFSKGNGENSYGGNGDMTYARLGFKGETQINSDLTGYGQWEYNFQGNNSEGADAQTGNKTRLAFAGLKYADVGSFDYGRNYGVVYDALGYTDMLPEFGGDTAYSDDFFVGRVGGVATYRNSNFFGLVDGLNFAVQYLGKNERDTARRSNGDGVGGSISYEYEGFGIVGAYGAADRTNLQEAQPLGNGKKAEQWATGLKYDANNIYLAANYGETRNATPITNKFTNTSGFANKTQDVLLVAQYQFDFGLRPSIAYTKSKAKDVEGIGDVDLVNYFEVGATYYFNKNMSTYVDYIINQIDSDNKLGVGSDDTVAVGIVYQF

native MS = biological target: the molecule itself; experiment: native MS
PagP = biological target: T4, PagP (UniProt P37001 26-186); experiment: native MS
T4 sequence (looked up): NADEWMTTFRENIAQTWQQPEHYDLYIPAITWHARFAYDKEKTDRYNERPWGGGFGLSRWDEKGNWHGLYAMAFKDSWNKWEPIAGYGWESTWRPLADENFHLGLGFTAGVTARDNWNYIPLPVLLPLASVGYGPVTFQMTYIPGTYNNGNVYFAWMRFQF

full-length BamA = full-length BamA (UniProt P0A940 21-810); experiment: cross-linking
full-length OmpA = biological target: T5, full-length OmpA (UniProt P0A910 22-346); experiment: cross-linking
T5 sequence (looked up): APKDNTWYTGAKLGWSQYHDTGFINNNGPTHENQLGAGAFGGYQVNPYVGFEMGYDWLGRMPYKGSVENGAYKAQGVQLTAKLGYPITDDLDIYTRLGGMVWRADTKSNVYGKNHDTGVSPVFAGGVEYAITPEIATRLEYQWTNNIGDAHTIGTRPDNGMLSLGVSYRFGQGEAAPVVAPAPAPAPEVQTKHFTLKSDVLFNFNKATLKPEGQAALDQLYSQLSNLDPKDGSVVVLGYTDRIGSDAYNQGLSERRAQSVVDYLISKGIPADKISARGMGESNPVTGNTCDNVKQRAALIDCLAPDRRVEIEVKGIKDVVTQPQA

stoichiometry N (OmpT): ≤ 2 Skp (trimer) per OMP and 1 Skp (trimer) per OMP | stoichiometry N [1]: 1 Skp (trimer) per OMP and ≤ 2 Skp (trimer) per OMP | stoichiometry N [2]: 1 Skp (trimer) per OMP | stoichiometry N (OmpF): 1 Skp (trimer) per OMP and ≤ 2 Skp (trimer) per OMP | stoichiometry N (PagP): 1 Skp (trimer) per OMP
B1: Skp (natural protein, Escherichia coli, UniProt P0AEU7 21-161, looked up)
chain: ADKIAIVNMGSLFQQVAQKTGVSNTLENEFKGRASELQRMETDLQAKMKKLQSMKAGSDRTKLEKDVMAQRQTFAQKAQAFEQDRARRSNEERGKLVTRIQTAVKSVANSQDIDLVVDANAVAYNSSDVKDITADVLKQVK
binding result (native MS): binds

stoichiometry N (full-length BamA): 2 Skp (trimer) per OMP | stoichiometry N (full-length OmpA): 1 Skp (trimer) per OMP
B2: His-tagged Skp (natural protein, Escherichia coli)
chain: B1 chain
